In patent publication US20150158934A1:

What was measured:
Experiment in all cases: SPR
[1] = molecular target: gp140UG37 (subtype A), gp140 envelope glycoprotein from the HIV-1 group M A-clade isolate 92UG037 (HIV-1)
[2] = molecular target: CA018 gp140/420 (A/G) (HIV-1)
[3] = molecular target: gp140CN54 (subtype B'/C), gp140 envelope glycoprotein from the HIV-1 group M CRF07-B/C-clade isolate 97CN54 (HIV-1)
[4] = molecular target: gp120IIIB (subgroup B) (HIV-1) (UniProt P04578)

Row | Substance | Kd [1] | koff [1] | kon [1] | Kd [2] | koff [2] | kon [2] | Kd [3] | koff [3] | kon [3] | Kd [4] | koff [4] | kon [4]
1 | mAb 2F5 (antibody) | 0.0585 µM | 0.422 s⁻¹ | 80900 M⁻¹ s⁻¹ | – | – | – | – | – | – | – | – | –
2 | mAb 2G12 (antibody) | 0.393 µM | 0.349 s⁻¹ | 695000 M⁻¹ s⁻¹ | 0.537 µM | 0.342 s⁻¹ | 500000 M⁻¹ s⁻¹ | – | – | – | – | – | –
3 | mAb 17b (antibody) | 0.00264 µM | 0.000135 s⁻¹ | 51000 M⁻¹ s⁻¹ | 0.00107 µM | 0.000637 s⁻¹ | 593000 M⁻¹ s⁻¹ | 0.00615 µM | 0.000171 s⁻¹ | 27700 M⁻¹ s⁻¹ | – | – | –
4 | mAb HJ16 (antibody) | 0.0885 µM | 0.341 s⁻¹ | 424000 M⁻¹ s⁻¹ | 1.03 µM | 0.0382 s⁻¹ | 37200 M⁻¹ s⁻¹ | – | – | – | 0.00303 µM | 0.000156 s⁻¹ | 51500 M⁻¹ s⁻¹
5 | mAb b12 (antibody) | 0.233 µM | 0.301 s⁻¹ | 1.29e+06 M⁻¹ s⁻¹ | 0.0188 µM | 0.0271 s⁻¹ | 1.43e+06 M⁻¹ s⁻¹ | 0.167 µM | 0.00228 s⁻¹ | 13600 M⁻¹ s⁻¹ | – | – | –
6 | sCD4 (2-D) (from UniProt P01730 26-208) (receptor) | 0.0398 µM | 0.000249 s⁻¹ | 6250 M⁻¹ s⁻¹ | – | – | – | – | – | – | 0.000942 µM | 6e-05 s⁻¹ | 63700 M⁻¹ s⁻¹
